Results taken from the supplement of paper PMC10567573.
± gives the standard deviation.

Assay: protein stability index of a GFP-peptide fusion (GPS, HEK-293T) (PSI 1-6); higher = more stable
[1] = treatment: DMSO, c terminus: a fixed tail appended
[2] = treatment: MLN4924 1 uM, 8 h, c terminus: a fixed tail appended
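Further: 24-mer peptide tiles fused after GFP, lentivirally expressed, FACS-sorted into six equal bins by GFP/DsRed ratio, decoded by Illumina sequencing, PSI is the read-weighted mean bin number.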

| Sequence | protein stability index [1] | protein stability index [2] | protein stability index (treatment: DMSO, c terminus: native) | protein stability index (treatment: MLN4924 1 uM, 8 h, c terminus: native) |
| --- | --- | --- | --- | --- |
| QPPPPPPPPPMQPTVPSAATSQPT [CCDC6] | 5.11 ± 0.16 | 5.29 ± 0.062 | – | – |
| LMGPSRMSLFSLYMVQDQHECILP [M1AP] | 2.58 ± 0.3 | 2.33 ± 0.24 | – | – |
| SEPYKLLPGAVATIVKPLSAIPQP [HNF4A] | 3.44 ± 0.3 | 3.59 ± 0.16 | – | – |
| LTHLVKLDLSKNKLQQLPADFGRL [LRRC59] | 2.65 ± 0.19 | 2.7 ± 0.17 | – | – |
| NPYYDPLQWKSSHFERRDNMNDNF [CHGB] | 3.27 ± 0.1 | 3.14 ± 0.23 | – | – |
| LKEDGMETVPWFPKKISDLDHCAN [TPH1] | 4.11 ± 0.25 | 4.09 ± 0.21 | – | – |
| EPERQVQHEESTEGEADHSGYAGE [UFD1] | 5.61 ± 0.28 | 5.7 ± 0.24 | – | – |
| LCDKLPPATALGTASYPSDGCGAD [NOL4L] | 4.98 ± 0.19 | 4.92 ± 0.23 | – | – |
| WRKRFRPREHHGRGGMLSASAETL [PPFIA4] | 3.15 ± 0.22 | 3.26 ± 0.056 | – | – |
| TIAQSLEHSWIKAIRRRNVRGEDS [DAPK3] | 3.64 ± 0.41 | 3.4 ± 0.15 | – | – |
| SRDRRRSSDRSRDSSHERTESQLT [BTBD10] | 5.45 ± 0.32 | 5.5 ± 0.22 | – | – |
| TTENENTKFEVRLLRDPADASEAH [CHGB] | 5.18 ± 0.21 | 5.24 ± 0.14 | – | – |
| GCLGHGSLTDISQPTIVEALLGYE [NEK8] | 3.1 ± 0.11 | 3.18 ± 0.4 | – | – |
| NQHGIILKYIGMAKREINKLLKQK [ARL6IP1] | 1.93 ± 0.39 | 2.16 ± 0.32 | – | – |
| TWMFFFMMCVAERTYKQRFLFAKL [PHTF1] | 2.83 ± 0.22 | 2.92 ± 0.36 | – | – |
| YLQDHEKKLRLVFKSLDKKNDGRI [SLC25A25] | 3.3 ± 0.13 | 3.43 ± 0.41 | – | – |
| HENETLASLKSEAESLKGKLEEER [GNB5] | 5.29 ± 0.33 | 5.34 ± 0.33 | – | – |
| SAPPTSRTSSGNVWVTHEEMETLE [PPFIA4] | 5.12 ± 0.29 | 4.88 ± 0.39 | – | – |
| RVMMASASDYFKAMFTGGMKEQDL [KLHL13] | 2.91 ± 0.58 | 2.82 ± 0.091 | – | – |
| GTIKKIIHQETVSKNGNGLKNTPR [PCMTD2] | 3.68 ± 0.55 | 4.03 ± 0.4 | – | – |
| EAVESTLQTPLDIRLKESINCQLS [TRIM14] | 4.38 ± 0.44 | 4.34 ± 0.36 | – | – |
| ICGIICIGPNVLMVHKRSHTGERP [IKZF1] | 2.46 ± 0.28 | 2.02 ± 0.38 | – | – |
| AQFRLLSEVEELNMSLTALREKLL [TEKT4] | 2.23 ± 0.43 | 2.62 ± 0.45 | – | – |

| Sequence | protein stability index [1] | protein stability index [2] | protein stability index (treatment: DMSO, c terminus: native) | protein stability index (treatment: MLN4924 1 uM, 8 h, c terminus: native) |
| --- | --- | --- | --- | --- |
| AVGKMGFVVTMLKLIQKKLLDKTC [ZER1] | 2.29 ± 0.64 | 2.35 ± 0.8 | – | – |
| FLSYYRLTRFLSRVIKCDPDCLRA [CCND1] | 2.23 ± 0.56 | 2.25 ± 0.54 | – | – |
| AIIISTIVLDRALHIPMYFFLAIL [OR10K2] | 3.04 ± 0.47 | 3.04 ± 0.33 | – | – |
| CNLWDSHHPEVPQRILRIMCRLEE [HDAC6] | 2.55 ± 0.16 | 2.35 ± 0.28 | – | – |
| KAENARLVVNIDNAKLASDDFRSK [KRT34] | 4.62 ± 0.16 | 4.71 ± 0.14 | – | – |
| MGSAADVRFSLGTTTHAPPGVHRR [PPFIA4] | 4.26 ± 0.3 | 4.51 ± 0.39 | – | – |
| GKSFSQNTNLHTHQRTHTGEKPFT [ZNF75A] | 4.01 ± 0.28 | 4.25 ± 0.35 | – | – |
| QSKILKVIRKNIVKKCLELFSELA [HSP90AB1] | 2.47 ± 0.37 | 3.39 ± 0.91 | – | – |
| FCISLLRERFMECLMIGRDLVRLL [INTS3] | 2.27 ± 0.28 | 2.29 ± 0.13 | – | – |
| TWLPSRAEWLLAVRSIQPEEKERI [AASDHPPT] | 3.3 ± 0.31 | 3.29 ± 0.2 | – | – |
| KKEEPEPETEAVSSSQEIPTMPQP [ZMYND11] | 5.45 ± 0.47 | 5.55 ± 0.23 | – | – |
| ELEIELQSQLSMKAGLENSLAETE [KRT15] | 4.77 ± 0.33 | 4.75 ± 0.25 | – | – |
| CTRPVPRNGGKYCEGRRTRFRSCN [ADAMTS4] | 3.79 ± 0.14 | 4.12 ± 0.24 | – | – |
| AVKGSLGSDLGGPLPTDPMLGLAL [TSPAN10] | 3.16 ± 0.17 | 3.06 ± 0.12 | – | – |
| CMAFELATGDYLFEPHSGEDYSRD [SRPK2] | 3.87 ± 0.47 | 4.12 ± 0.25 | – | – |
| HPDPAPFCADNPSELPPPMERTGG [DVL3] | 3.41 ± 0.55 | 4.17 ± 0.49 | – | – |
| CYYQPAPYVSDGNFSNYYVAHPPV [TENT5C] | 2.24 ± 0.3 | 2.43 ± 0.45 | – | – |
| TMEYSMVGRTVLDMLIREVVEKRL [RSPH3] | 2.68 ± 0.54 | 2.64 ± 0.3 | – | – |
| VCTVQFLISKGANVNRTTANNDHT [ANKRD17] | 2.28 ± 0.24 | 2.46 ± 0.4 | – | – |
| ENERVRGLETGDWGGAPKEGSIWR [ZSWIM9] | 4.29 ± 0.32 | 4.16 ± 0.28 | – | – |
| TGFPQYAQLYEDFLFPIDISLVKR [DLC1] | 2.37 ± 0.24 | 2.35 ± 0.54 | – | – |
| SRLGQGIGPIHLNEIQCTGNEKSI [LOXL2] | 4.42 ± 0.32 | 4.09 ± 0.18 | – | – |
| HSALGGTKKKKKTIVTDVFQGSMR [USP39] | 4.02 ± 0.4 | 4.14 ± 0.058 | – | – |

| Sequence | protein stability index [1] | protein stability index [2] | protein stability index (treatment: DMSO, c terminus: native) | protein stability index (treatment: MLN4924 1 uM, 8 h, c terminus: native) |
| --- | --- | --- | --- | --- |
| KSQSLRSVRRSESWARPRPDEERP [RASAL3] | 4.89 ± 0.36 | 4.99 ± 0.12 | – | – |
| LGGAIDFGAAYVLEQASSHIGNST [ATL3] | 3.03 ± 0.23 | 3.2 ± 0.15 | – | – |
| FMEKRNQWLVSQLSAASPDTGHDS [TRAF3IP2] | 2.76 ± 0.34 | 3.21 ± 0.58 | – | – |
| IYGHVTLMRAQRNYMVQTEDQYIF [PTPRD] | 2.61 ± 0.58 | 2.87 ± 1.1 | – | – |
| EFSSVGTEMIITKAGRRMFPACRV [TBX6] | 2.7 ± 0.21 | 2.66 ± 0.34 | – | – |
| WSLYPSDSQVSEEVKTRHSEKSQR [CHGB] | 4.78 ± 0.17 | 4.8 ± 0.19 | – | – |
| PEDEVIVNQYVIRPGPSASAASSA [RNF208] | 4.61 ± 0.12 | 4.62 ± 0.16 | – | – |
| QSTDGARGKRGYSRGLHAWEISWP [SPSB2] | 2.9 ± 0.14 | 2.75 ± 0.39 | – | – |
| VGAAGSARQELLGDRPRWQRLLGE [ANKRD9] | 3.54 ± 0.27 | 3.31 ± 0.15 | – | – |
| LGDRLNVEVDTAPTVDLNQVLNET [KRT34] | 4.87 ± 0.15 | 4.96 ± 0.29 | – | – |
| GPVAGLDDSGGPTPSSYAPSHPPR [ZBTB22] | 4.92 ± 0.15 | 4.79 ± 0.13 | – | – |
| GLALESSSGLQDVTGPDNGVRESE [NFE2L1] | 5.57 ± 0.36 | 5.53 ± 0.28 | – | – |
| YGRFIRWLNKEKGIFKIEDSAQVA [SPDEF] | 2.37 ± 0.35 | 2.48 ± 0.2 | – | – |
| LLESPQLATLAEDVTAALAKQGL [MAP2] | – | – | 4.66 ± 0.21 | 4.53 ± 0.2 |
| EEQALTKAAEGGLSSPEFSELCIW [FAM98B] | 3.72 ± 0.052 | 3.65 ± 0.11 | – | – |
| GRYSVHNAGISFSVKKQGETVADV [MLH1] | 3.79 ± 0.25 | 3.85 ± 0.37 | – | – |
| INQSFTGAERKAALCELLEKETQI [IQUB] | 4.38 ± 0.23 | 4.01 ± 0.19 | – | – |
| MSQGPPTGESSEPEAKVLHTKRLY [SMG5] | 4.81 ± 0.24 | 4.94 ± 0.15 | – | – |
| LLKHSNIVRLHDSISEEGFHYLVF [CAMK2B] | 2.68 ± 0.46 | 2.42 ± 0.37 | – | – |
| THIMKGEDDALSDKHGCPAYVSPE [TRIB1] | 5.12 ± 0.14 | 4.91 ± 0.22 | – | – |
| KMAAFHGAGLKRYLLTVMAAAAKA [ADAMTS4] | 2.43 ± 0.21 | 2.58 ± 0.5 | – | – |
| VQTEDQYQFSYRAALEYLGSFDHY [PTPRD] | 2.22 ± 0.26 | 2.51 ± 0.22 | – | – |
| DFKEDLKKFRTKSRTWAGEKSKRE [CDC25A] | 4.88 ± 0.52 | 4.92 ± 0.15 | – | – |

| Sequence | protein stability index [1] | protein stability index [2] | protein stability index (treatment: DMSO, c terminus: native) | protein stability index (treatment: MLN4924 1 uM, 8 h, c terminus: native) |
| --- | --- | --- | --- | --- |
| LKLWEIGKIIGGMWRDLTDEEKQE [SMARCE1] | 2.67 ± 0.55 | 3.44 ± 0.43 | – | – |
| HADILAAVETRLSLLNMTFMKYVD [FBXO28] | 2.84 ± 0.69 | 2.75 ± 0.65 | – | – |
| ARRKSELPQDPHTKKALEAHCRAD [PPP2R5C] | 4.68 ± 0.34 | 5.17 ± 0.12 | – | – |
| FVQREEQLQFLIRYHRFISFALYL [CDS1] | 2.4 ± 0.68 | 2.68 ± 0.9 | – | – |
| PTVHVEVHQRGSSTAKKEDINLSV [TRIP13] | 4.83 ± 0.2 | 4.84 ± 0.29 | – | – |
| KVIDDTNITRLQLETEIEALKEEL [KRT18] | 4.2 ± 0.18 | 4.36 ± 0.23 | – | – |
| RMTSAAHYYPKLMSIMGNVLRFLP [GFOD1] | 2.32 ± 0.39 | 2.15 ± 0.36 | – | – |
| FTQPLLPAFTVWCGSFQVTTGLQV [FSD1] | 3 ± 0.12 | 3.03 ± 0.5 | – | – |
| NLFVPLNTNPKEVQEMRNKIREQN [ADD1] | 4.29 ± 0.18 | 4.18 ± 0.24 | – | – |
| RAHAEIRKMSLLKFLAKVNGSDPR [MAGEA10] | 2.37 ± 0.26 | 2.57 ± 0.58 | – | – |
| ILDTDEYVLKYMESNAAQYSPEAL [EFHC1] | 3.99 ± 0.31 | 3.96 ± 0.38 | – | – |
| FRRGEKLRVISDEGGWWKAISLST [SLA] | 3.3 ± 1.1 | 2.13 ± 0.72 | – | – |
| VRGLLASLFAFKSFRENWQRAWVR [C2CD2L] | 2.3 ± 0.59 | 2.61 ± 0.28 | – | – |
| KPDSVGLPPCAVRNLQDLARIYIR [PCMTD1] | 2.94 ± 0.085 | 2.85 ± 0.1 | – | – |
| QSDVGVAVFENKIYVVGGYSWNNR [KLHL13] | 2.19 ± 0.34 | 2.26 ± 0.12 | – | – |
| QLDREAQARHQLVLTAVDGGTPAR [PCDHGC5] | 4.59 ± 0.1 | 4.76 ± 0.18 | – | – |
| KPIHTTILNPHVHVIGEDAACIAY [CAMK2B] | 2.77 ± 0.26 | 2.98 ± 0.18 | – | – |
| KPEDTAEDLTAKRKRMKMDKTCSK [FAM9B] | 5.3 ± 0.2 | 5.43 ± 0.11 | – | – |
| MAETSLLEAGASAASTAAALENLQ [TRIM39] | 4.59 ± 0.32 | 4.4 ± 0.29 | – | – |
| LLGPATGCLLDDGLEGLFEDIDTS [SERTAD1] | 4.27 ± 0.097 | 4.32 ± 0.37 | – | – |
